Biological target: T1, CCHFV Gc monomer (Gc10200 aa 1,041-1,579, Strep-Tag II) (Crimean-Congo hemorrhagic fever virus, …, UniProt Q8JSZ3 1041-1579)
T1 construct: also called Gc protein; recombinant Gc monomer
T1 sequence: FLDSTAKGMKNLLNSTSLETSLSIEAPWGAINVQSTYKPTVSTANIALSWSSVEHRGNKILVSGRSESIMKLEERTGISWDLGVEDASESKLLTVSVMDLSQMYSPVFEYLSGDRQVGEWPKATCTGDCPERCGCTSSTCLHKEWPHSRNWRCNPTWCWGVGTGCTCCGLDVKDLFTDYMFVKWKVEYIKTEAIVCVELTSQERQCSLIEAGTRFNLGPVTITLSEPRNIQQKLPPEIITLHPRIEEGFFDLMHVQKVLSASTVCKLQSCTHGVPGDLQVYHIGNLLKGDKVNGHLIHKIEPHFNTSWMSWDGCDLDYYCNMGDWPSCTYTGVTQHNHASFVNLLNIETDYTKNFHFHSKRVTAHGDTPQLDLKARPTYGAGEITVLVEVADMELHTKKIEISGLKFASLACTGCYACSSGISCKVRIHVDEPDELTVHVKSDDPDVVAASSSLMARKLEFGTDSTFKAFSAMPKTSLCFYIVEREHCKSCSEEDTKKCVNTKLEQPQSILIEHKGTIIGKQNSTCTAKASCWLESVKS
Experiment: BLI; ForteBio Octet Red; […] (15 µg/mL) […]; PBS with 0.02% Tween 20 and 0.1% BSA; 1/1 binding model
Settings: both partners purified

B1: Human recombinant MFGE8 protein with His tag at the C-terminus (natural protein, UniProt Q08431 24-387, looked up)
chain: LDICSKNPCHNGGLCEEISQEVRGDVFPSYTCTCLKGYAGNHCETKCVEPLGLENGNIANSQIAASSVRVTFLGLQHWVPELARLNRAGMVNAWTPSSNDDNPWIQVNLLRRMWVTGVVTQGASRLASHEYLKAFKVAYSLNGHEFDFIHDVNKKHKEFVGNWNKNAVHVNLFETPVEAQYVRLYPTSCHTACTLRFELLGCELNGCANPLGLKNNSIPDKQITASSSYKTWGLHLFSWNPSYARLDKQGNFNAWVAGSYGNDQWLQVDLGSSKEVTGIITQGARNFGSVQFVASYKVAYSNDSANWTEYQDPRTGSSKIFPGNWDNHSHKKNLFETPILARYVRILPVAWHNRIALRLELLGC
notes: also called milk fat globule-EGF factor 8 protein; lactadherin; not shown: His tag, C-terminal, kept
  Kd: < 1 pM

— PMC12505966, “Soluble MFGE8 mediates cell entry of Crimean-Congo hemorrhagic fever virus” (mBio, 2025)
